# Measurements published in patent publication US20090111753A1, “Nogo-A Polypeptide Fragments, Variant Nogo Receptor-1 Polypeptides, and Uses Thereof” (Yale University, priority 2004, published 2009).
# Test system: NgR ligands
# Assay: Binding of alanine substituted NgR mutants to NgR ligands, summary categories
# Settings: AP-Nogo66, AP-B4C, AP-B4C66, AP-Lingo-1, AP-OMgp and AP-MAG; compared to wild type NgR
# Excerpt: To better define how multiple ligands bind to the NgR protein, we examined a series of Ala-substituted NgR for ligand binding activity. NgR mutagenesis was done using the Quick Change Multisite Directed Mutagenesis Kit (Stratagene catalog #200514). Human NgR1 was used as a template. Ala substitutions were generated for each of the charged residues predicted to be solvent accessible at the surface of the ligand binding domain of NgR (Barton, W. A., et al., Embo J. 22:3291-3302 (2003); He, X. L., et al., Neuron 38:177-185 (2003)). We generated mutants in which 1-8 surface residues localized within 5 A of one another were Ala-substituted. Because of the coiling nature of the LRR structure, as residues juxtaposed on the protein surface are commonly separated by approximately 25 residues in the primary structure. In addition to mutations in specific charged surface patches, other mutations were targeted to glycosylation sites and to regions predicted to be involved in ligand binding based on the NgR structure (Barton, W. A., et al., Embo J. 22:3291-3302 (2003); He, X. L., et al., Neuron 38:177-185 (2003)). In addition, a variant corresponding to a human polymorphism was examined (D259N). None of the mutations altered the Leu residues that define the LRR structure itself or the Cys residues critical in the amino and carboxyl terminal capping domains. The vast majority of such Ala surface substitution mutants were expressed as immunoreactive polypeptides with a molecular weight and an expression level indistinguishable from wild type NgR (FIG. 4C and data not shown).
# This collection of 74 individual NgR mutants was interrogated for AP-Nogo-66, AP-Amino-Nogo-B4C, AP-MAG, AP-OMgp, and AP-Lingo-1 binding. AP-Nogo66, AP-MAG, AP-OMGP and AP-Lingo-1 constructs are described elsewhere (Fournier, A. E., et al., Nature 409:341-346 (2001); Liu, B. P., et al., Science 297:1190-1193 (2002); Mi, S., et al., Nat. Neurosci. 7:221-228 (2004); Wang, K. C., et al., Nature 417:941-944 (2002b)). The properties of the NgR mutants fell into one of three major categories (Table II and FIG. 5). A number of Ala substituted NgR polypeptides bound all of the ligands at wild type levels. […] In addition, a significant extent of the concave surface is dispensable for ligand binding.
# Alanine substituted NgR mutants were tested for their binding to AP-Nogo66, AP-B4C, AP-B4C66, AP-Lingo-1, AP-OMgp and AP-MAG and they fall into three categories: (1) Mutants that lose binding to all NgR ligands. (2) Mutants that still maintain binding to all NgR ligands. […] The D259N mutant is an asparagine substitution to mimic a human polymorphism.
row,Molecule,ligand binding category of NgR mutant (Table II)
1,"189, 191: human NgR1 mutant, listed residues mutated to alanine (protein) CPGACVCYNEPKVTTSCPQQGLQAVPVGIPAASQRIFLHGNRISHVPAASFRACRNLTILWLHSNVLARIDAAAFTGLALLEQLDLSDNAQLRSVDPATFHGLGRLHTLHLDRCGLQELGPGLFRGLAALQYLYLQDNALQALPDDTFRDLGNLTHLFLHGNAIASVPERAFRGLHSLDRLLLHQNRVAHVHPHAFRDLGRLMTLYLFANNLSALPTEALAPLRALQYLRLNDNPWVCDCRARPLWAWLQKFRGSSSEVPCSLPQRLAGRDLKRLAANDLQGCAVATGPYHPIWTGRATDEEPLGLPKCCQPDAADKASVLEPGRPASAGNALKGRVPPGDSPPGNGSGPRHINDSPFGTLPGSAEPPLTAVRPEGSEPPGFPTSGPRRRPGCSRKNRTRSHCRLGQAGSGGGGTGDSEGSGALPSLTCSLTPLGLALVLWTVLGPC",Binding to all ligands
2,"189, 191, 237: human NgR1 mutant, listed residues mutated to alanine (protein) CPGACVCYNEPKVTTSCPQQGLQAVPVGIPAASQRIFLHGNRISHVPAASFRACRNLTILWLHSNVLARIDAAAFTGLALLEQLDLSDNAQLRSVDPATFHGLGRLHTLHLDRCGLQELGPGLFRGLAALQYLYLQDNALQALPDDTFRDLGNLTHLFLHGNAIASVPERAFRGLHSLDRLLLHQNRVAHVHPHAFRDLGRLMTLYLFANALSALPTEALAPLRALQYLRLNDNPWVCDCRARPLWAWLQKFRGSSSEVPCSLPQRLAGRDLKRLAANDLQGCAVATGPYHPIWTGRATDEEPLGLPKCCQPDAADKASVLEPGRPASAGNALKGRVPPGDSPPGNGSGPRHINDSPFGTLPGSAEPPLTAVRPEGSEPPGFPTSGPRRRPGCSRKNRTRSHCRLGQAGSGGGGTGDSEGSGALPSLTCSLTPLGLALVLWTVLGPC",Binding to all ligands
3,"277, 279: human NgR1 mutant, listed residues mutated to alanine (protein) CPGACVCYNEPKVTTSCPQQGLQAVPVGIPAASQRIFLHGNRISHVPAASFRACRNLTILWLHSNVLARIDAAAFTGLALLEQLDLSDNAQLRSVDPATFHGLGRLHTLHLDRCGLQELGPGLFRGLAALQYLYLQDNALQALPDDTFRDLGNLTHLFLHGNRISSVPERAFRGLHSLDRLLLHQNRVAHVHPHAFRDLGRLMTLYLFANNLSALPTEALAPLRALQYLRLNDNPWVCDCRARPLWAWLQAFAGSSSEVPCSLPQRLAGRDLKRLAANDLQGCAVATGPYHPIWTGRATDEEPLGLPKCCQPDAADKASVLEPGRPASAGNALKGRVPPGDSPPGNGSGPRHINDSPFGTLPGSAEPPLTAVRPEGSEPPGFPTSGPRRRPGCSRKNRTRSHCRLGQAGSGGGGTGDSEGSGALPSLTCSLTPLGLALVLWTVLGPC",Binding to all ligands
4,"202, 205: human NgR1 mutant, listed residues mutated to alanine (protein) CPGACVCYNEPKVTTSCPQQGLQAVPVGIPAASQRIFLHGNRISHVPAASFRACRNLTILWLHSNVLARIDAAAFTGLALLEQLDLSDNAQLRSVDPATFHGLGRLHTLHLDRCGLQELGPGLFRGLAALQYLYLQDNALQALPDDTFRDLGNLTHLFLHGNRISSVPERAFRGLASLARLLLHQNRVAHVHPHAFRDLGRLMTLYLFANNLSALPTEALAPLRALQYLRLNDNPWVCDCRARPLWAWLQKFRGSSSEVPCSLPQRLAGRDLKRLAANDLQGCAVATGPYHPIWTGRATDEEPLGLPKCCQPDAADKASVLEPGRPASAGNALKGRVPPGDSPPGNGSGPRHINDSPFGTLPGSAEPPLTAVRPEGSEPPGFPTSGPRRRPGCSRKNRTRSHCRLGQAGSGGGGTGDSEGSGALPSLTCSLTPLGLALVLWTVLGPC",Binding to all ligands
5,"202, 205, 227: human NgR1 mutant, listed residues mutated to alanine (protein) CPGACVCYNEPKVTTSCPQQGLQAVPVGIPAASQRIFLHGNRISHVPAASFRACRNLTILWLHSNVLARIDAAAFTGLALLEQLDLSDNAQLRSVDPATFHGLGRLHTLHLDRCGLQELGPGLFRGLAALQYLYLQDNALQALPDDTFRDLGNLTHLFLHGNRISSVPERAFRGLASLARLLLHQNRVAHVHPHAFRDLGALMTLYLFANNLSALPTEALAPLRALQYLRLNDNPWVCDCRARPLWAWLQKFRGSSSEVPCSLPQRLAGRDLKRLAANDLQGCAVATGPYHPIWTGRATDEEPLGLPKCCQPDAADKASVLEPGRPASAGNALKGRVPPGDSPPGNGSGPRHINDSPFGTLPGSAEPPLTAVRPEGSEPPGFPTSGPRRRPGCSRKNRTRSHCRLGQAGSGGGGTGDSEGSGALPSLTCSLTPLGLALVLWTVLGPC",Binding to all ligands
6,"267, 269: human NgR1 mutant, listed residues mutated to alanine (protein) CPGACVCYNEPKVTTSCPQQGLQAVPVGIPAASQRIFLHGNRISHVPAASFRACRNLTILWLHSNVLARIDAAAFTGLALLEQLDLSDNAQLRSVDPATFHGLGRLHTLHLDRCGLQELGPGLFRGLAALQYLYLQDNALQALPDDTFRDLGNLTHLFLHGNRISSVPERAFRGLHSLDRLLLHQNRVAHVHPHAFRDLGRLMTLYLFANNLSALPTEALAPLRALQYLRLNDNPWVCDCAAAPLWAWLQKFRGSSSEVPCSLPQRLAGRDLKRLAANDLQGCAVATGPYHPIWTGRATDEEPLGLPKCCQPDAADKASVLEPGRPASAGNALKGRVPPGDSPPGNGSGPRHINDSPFGTLPGSAEPPLTAVRPEGSEPPGFPTSGPRRRPGCSRKNRTRSHCRLGQAGSGGGGTGDSEGSGALPSLTCSLTPLGLALVLWTVLGPC",Binding to all ligands
7,"189, 191, 284: human NgR1 mutant, listed residues mutated to alanine (protein) CPGACVCYNEPKVTTSCPQQGLQAVPVGIPAASQRIFLHGNRISHVPAASFRACRNLTILWLHSNVLARIDAAAFTGLALLEQLDLSDNAQLRSVDPATFHGLGRLHTLHLDRCGLQELGPGLFRGLAALQYLYLQDNALQALPDDTFRDLGNLTHLFLHGNAIASVPERAFRGLHSLDRLLLHQNRVAHVHPHAFRDLGRLMTLYLFANNLSALPTEALAPLRALQYLRLNDNPWVCDCRARPLWAWLQKFRGSSSAVPCSLPQRLAGRDLKRLAANDLQGCAVATGPYHPIWTGRATDEEPLGLPKCCQPDAADKASVLEPGRPASAGNALKGRVPPGDSPPGNGSGPRHINDSPFGTLPGSAEPPLTAVRPEGSEPPGFPTSGPRRRPGCSRKNRTRSHCRLGQAGSGGGGTGDSEGSGALPSLTCSLTPLGLALVLWTVLGPC",Binding to all ligands
8,"196, 199: human NgR1 mutant, listed residues mutated to alanine (protein) CPGACVCYNEPKVTTSCPQQGLQAVPVGIPAASQRIFLHGNRISHVPAASFRACRNLTILWLHSNVLARIDAAAFTGLALLEQLDLSDNAQLRSVDPATFHGLGRLHTLHLDRCGLQELGPGLFRGLAALQYLYLQDNALQALPDDTFRDLGNLTHLFLHGNRISSVPEAAFAGLHSLDRLLLHQNRVAHVHPHAFRDLGRLMTLYLFANNLSALPTEALAPLRALQYLRLNDNPWVCDCRARPLWAWLQKFRGSSSEVPCSLPQRLAGRDLKRLAANDLQGCAVATGPYHPIWTGRATDEEPLGLPKCCQPDAADKASVLEPGRPASAGNALKGRVPPGDSPPGNGSGPRHINDSPFGTLPGSAEPPLTAVRPEGSEPPGFPTSGPRRRPGCSRKNRTRSHCRLGQAGSGGGGTGDSEGSGALPSLTCSLTPLGLALVLWTVLGPC",Binding to all ligands
